What was measured:
[1] = substrate: NC(=O)c1ccc[n+]([C@@H]2O[C@H](CO)[C@@H](O)[C@H]2O)c1; experiment: purified protein; conditions: free enzyme, ATP 1 mM, 10 mM MgCl2, 20 mM Tris-HCl pH 5.8, optimal temperature (30 °C for free enzyme)
[2] = substrate: Nc1ncnc2c1ncn2[C@@H]1O[C@H](COP(=O)(O)OP(=O)(O)OP(=O)(O)O)[C@@H](O)[C@H]1O; experiment: HPLC of NMN formed, Michaelis-Menten fit; assay type: biochemical, Saccharomyces cerevisiae; conditions: free enzyme, NR 1 mM, 10 mM MgCl2, 20 mM Tris-HCl pH 5.8, optimal temperature (30 °C for free enzyme)

B1: reScNRK1 (recombinant nicotinamide riboside kinase1; nicotinamide nucleoside kinase1) (Saccharomyces cerevisiae S288C) (protein)
chain: MTSKKVILVALSGCSSSGKTTIAKLTASLFTKATLIHEDDFYKHDNEVPVDAKYNIQNWDSPEALDFKLFGKELDVIKQTGKIATKLIHNNNVDDPFTKFHIDRQVWDELKAKYDSINDDKYEVVIVDGFMIFNNTGISKKFDLKILVRAPYEVLKKRRASRKGYQTLDSFWVDPPYYFDEFVYESYRANHAQLFVNGDVEGLLDPRKSKNIKEFINDDDTPIAKPLSWVCQEILKLCKD
notes: free enzyme
Protein B1 has a Km [1] of 18.69 mM, a Vmax [1] of 98.4 µmol/min/mg and a Km [2] of 54.27 mM. For the same protein, the Vmax [2] was 137 µmol/min/mg.

Reference: PMC9975500, “High level expression of nicotinamide nucleoside kinase from Saccharomyces cerevisiae and its purification and immobilization by one-step method” (Frontiers in Bioengineering and Biotechnology, 2023)
